Where a chain is given by its changes, count along the chain named.

Assay [1] concerns the target T1, cynomolgus monkey CD38 expressed on the surface of recombinant murine preB::300.19 cells (cynomolgus monkey, UniProt Q5VAN0 1-301).
T1 construct: whole, on cells; also called cCD38-expressing cells; cells expressing cynomolgus CD38
Description: flow cytometry on cCD38-expressing murine preB::300.19 cells, apparent KD (called EC50 in paragraph 336). (In general: A flow cytometer gives signals particle by particle.)

Assay [2] concerns the target T2, human CD38 expressed on the surface of recombinant murine preB::300.19 cells (human, UniProt P28907 1-300).
T2 construct: whole, on cells; also called hCD38-expressing cells; cells expressing human CD38
Nature of the assay: flow cytometry on hCD38-expressing murine preB::300.19 cells.

Assay [3] concerns the target T3, recombinant human CD38 (SPR antigen of Example 2) (human, UniProt P28907 43-300). Description: SPR; KD rounded to integer; the cell gives two values for mid/low, the first taken as the CD3mid construct. In general terms: Surface plasmon resonance follows binding to a sensor surface in real time, without labels.
Assay [4] deals with T4, human CD3 (SPR antigen of Example 2) (human).
T4 chain: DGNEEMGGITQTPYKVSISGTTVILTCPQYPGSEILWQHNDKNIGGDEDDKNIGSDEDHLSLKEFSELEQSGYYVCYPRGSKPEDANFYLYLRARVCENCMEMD
Described as above.

For assay [5], the target named is human CD28 (SPR antigen of Example 2) (human, UniProt P10747 19-152). The assay is described as above.
In assay [6] the target is T2, human CD38 expressed on the surface of …. Description: flow cytometry on hCD38-expressing murine preB::300.19 cells, apparent KD (called EC50 in paragraph 336).
Assay [7] has as its target T1, cynomolgus monkey CD38 expressed on the …. Description: flow cytometry on cCD38-expressing murine preB::300.19 cells.
Assay [8] deals with T3, recombinant human CD38 (SPR antigen of …). Nature of the assay: SPR against recombinant protein; the cell gives two values for mid/low, the first taken as the CD3mid construct.
For assay [9] the target is unchanged. Description: SPR, target binding without other targets present.
Assay [10] addresses T2, human CD38 expressed on the surface of …. Description: flow cytometry on hCD38-expressing murine preB::300.19 cells, apparent KD (called EC50 in paragraph 335).
Assay [11] has as its target T3, recombinant human CD38 (SPR antigen of …). Nature of the assay: SPR, target binding with the other two targets in saturation.
For assay [12], the target named is T5, hCD38-his (SEQ ID NO: 2) (human, UniProt P28907 45-300).
T5 construct: also called human CD38-histag (ID2); soluble extracellular domain of humanCD38
Nature of the assay: SPR (summary table; Table K value rounded).

Assay [13] deals with T6, cCD38-his (SEQ ID NO: 4) (cynomolgus monkey, UniProt Q5VAN0 46-301).
T6 construct: also called cyno CD38-histag (ID3); soluble extracellular domain of cynomolgusCD38
Description: SPR (summary table; Table K value rounded).

For assay [14], the target named is T2, human CD38 expressed on the surface of …. Description: flow cytometry on CD38-expressing murine preB::300.19 cells, apparent KD.

B1: CD38VH1xCD28cvnxCD3mid trispecific binding protein (other)
VH 1: QVQLQESGPGLVKPSQTLSLTCTVSGFSLSDYGVHWVRQPPGKGLEWLGVIWAGGGTNYNPSLKSRKTISKDTSKNQVSLKLSSVTAADTAVYYCARDKGYSYYYSMDYWGQGTTVTVS
VL 1: DIVLTQSPASLAVSPGQRATITCRASESVEYYVTSLMQWYQQKPGQPPKLLIFAASNVESGVPARFSGSGSGTDFTLTINPVEANDVANYYCQQSRKVPYTFGQGTKLEIK
VH 2: QVQLVESGGGVVQPGRSLRLSCAASGFTFTKAWMHWVRQAPGKQLEWVAQIKDKSNSYATYYADSVKGRFTISRDDSKNTLYLQMNSLRAEDTAVYYCRGVYYALSPFDYWGQGTLVTVSS
VL 2: DIVMTQTPLSLSVTPGQPASISCKSSQSLVHNNANTYLSWYLQKPGQSPQSLIYKVSNRFSGVPDRFSGSGSGTDFTLKISRVEAEDVGVYYCGQGTQYPFTFGSGTKVEIK
VH 3: QVQLVQSGAEVVKPGASVKVSCKASGYTFTSYAMHWVKEAPGQRLEWIGYIYPGQGGTNYNQKFQGRATLTADTSASTAYMELSSLRSEDTAVYFCARTGGLRRAYFTYWGQGTLVTVSS
VL 3: DIVLTQSPATLSLSPGERATISCRASQSVSSYGQGFMHWYQQKPGQPPRLLIYGASSRATGIPARFSGSGSGTDFTLTISPLEPEDFAVYYCQQNKEDPWTFGGGTKLEIK
Take B1: the Kd turned out to be 7.5 nM in assay [1]; 4 nM in [3]; 23 nM in assay [4]; 18 nM in assay [5]; 4.4 nM in [6]; 4 nM in assay [8]. The “fold lower apparent affinity than the parental antiCD38_C2-CD38-1_VH1-VL1 antibody” value was 9 fold in [2] and 7.5 fold in assay [7].

B2: CD38SB19xCD28supxCD3mid trispecific binding protein (other)
VH 1: QVQLVQSGAEVVKPGASVKVSCKASGYTFTSYYIHWVRQAPGQGLEWIGSIYPGNVNTNYAQKFQGRATLTVDTSISTAYMELSRLRSDDTAVYYCTRSHYGLDWNFDVWGKGTTVTVSS
VL 1: DIQMTQSPSSLSASVGDRVTITCQASQNIYVWLNWYQQKPGKAPKLLIYKASNLHTGVPSRFSGSGSGTDFTLTISSLQPEDIATYYCQQGQTYPYTFGQGTKLEIK
VH 2: B1 VH 2
VL 2: B1 VL 2
VH 3: QVQLVQSGAEVAKPGTSVKLSCKASGYTFTDYWMQWVKQRPGQGLEWIGTIYPGDGDTGYAQKFQGKATLTADKSSKTVYMHLSSLASEDSAVYYCARGDYYGSNSLDYWGQGTSVTVSS
VL 3: DIVMTQSHLSMSTSLGDPVSITCKASQDVSTVVAWYQQKPGQSPRRLIYSASYRYIGVPDRFTGSGAGTDFTFTISSVQAEDLAVYYCQQHYSPPYTFGGGTKLEIK
Consider B2, for which the results for the Kd in assay [9], in [10] and in [11] were 1.75 nM, 4 nM and 2.42 nM, respectively.

B3: antiCD38_C2-CD38-1_VH6-VL3 (antibody, human IgG1, kappa, V domains shown)
VH: B1 VH 3 with V20M, Y32F, A33N, Q55N, L83I
VL: DIVLTQSPATLSLSPGERATISCRASESVDSYGNGFMHWYQQKPGQPPRLLIYLASSRATGIPARFSGSGSGTDFTLTISPLEPEDFAVYYCQQNKEDPWTFGGGTKLEIKR
For the molecule B3, the Kd in assay [12] came out at 0.31 nM; in assay [13], 0.56 nM.

B4: antiCD38_C2-CD38-1_VH5-VL3 (antibody, human IgG1, kappa, V domains shown)
VH: B1 VH 3 with P14S, Y32F, A33N, R44G, Q55N, L83I
VL: B3 VL
On to B4, for which the Kd in assay [14] was 0.55 nM; in [12], 0.82 nM.

Source of the values: patent US20200140552A1 (Sanofi, published 2020).
